In the nanobody polyreactivity screen of Harvey et al. (2022):

Assay: yeast display, Sf9 membrane polyspecificity reagent, FACS + sequencing; frameworks hold sequencing errors
How it was run: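 Nanobodies from a synthetic yeast display library (Saccharomyces cerevisiae BJ5465), induced 36–48 hours with galactose, were stained 1 hour at 4 °C with 10% biotinylated, detergent-solubilized Sf9 membrane reagent, enriched on streptavidin microbeads, then FACS-sorted. Anti-HA (expression) and streptavidin (reagent binding) fluorescence set low and high (top ~1%) gates. Polyreactivity labels come from the gate of origin. Genes were colony-PCR amplified, MiSeq 2 × 250 sequenced and filtered by CDR length.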

| Sequence | polyreactivity (PSR sort gate) |
| --- | --- |
| QVQLVESRGGLVKAGGSLRLSCAASGRIFRKYDMGWYRQAPGKERELVAAISGTGITYYADSVKGRFTISRDNAKNTVYLQMNRLKPEDTAVYYCARGSKPRAWSWAFASATSIYEYWGQGTQLTVSS | low polyreactivity |
| QVQLVESRGGLVQAGCSLRLSCAASGSIFLHKAMGWYRQAPGKERELVAVITSRGGSTYYADSVKGRFTISRDNAKITVYVQMNSLNPEDPAVYYCAAPDYHKRTSRGDYWGQGTQVTVSS | low polyreactivity |
| QVQLVESRGGLVQAGGSHRLSCAASGSIFGYYAMGWYRQAPGNERELVAAIRSTGSTNYADSVKGRFTISRDNAQNSVYLQMNSLKPVDTAVYYCAAGYITWGSGNWVVTPYDYWGQGTQVTVSS | high polyreactivity |
| QVQLVESRGGLVQAGGSHRLSCADAGYSNIANAMGSDRQAPGKERELVAAISIGGNTKYADSVKGRFTISRDNAKNTVYLQMNSLKPEDTAVYYCAVEDQYYSVSLGGEYDYWGQGTQVTVSS | high polyreactivity |
| QVQLVESRGGLVQAGGSLPLSCAASGSIFDRYAMGWYRQAPGKERELVAAISRSGGSTYYADSVKGRFTISRDNAKNTVYLQMNSLKPEDTAVYYCAARARSLYDYWGQGTQVTVSS | high polyreactivity |
| QVQLVESRGGLVQAGGSLRFSCAASGSTFRDYAMGGSRQAPGKERQVLAAISSTGGRTYYADSVKGRFTISRDNAKNTVYLQMNSLKPEDTAVYYCKAALYPSLDYGSASISKSYDYWGQGTQVTVSS | high polyreactivity |
| QVQLVESRGGLVQAGGSLRISCPDSGFTFTKNAMGWYRQAPGKERELVAAISRGRGRTYYADSVKGRFTISRDNAKNTVYFQMNSLIPEDTAVYYCNVDKVGPGYDYWGQGTQVTVSS | high polyreactivity |
| QVQLVESRGGLVQAGGSLRLSCAASGFIFTRNAMGWYRQAHGKVRELVAAISYSGGSTYYADSVKGRFTISRDNAKNTVYLQMNSLKPEDTAVYYCNVSPTTSGDGGGYDSWGQGTLVTVSS | low polyreactivity |
| QVQLVESRGGLVQAGGSLRLSCAASGFTLPANGMGWYRQAPGKERELVAAISFIAGSTYYADSVKGRFTISRDNEKNTVYFQMNSLKPEDTAVYYSATQFPPSSIYDYWGQGTQVTVSS | low polyreactivity |
| QVQLVESRGGLVQAGGSLRLSCAASGIIFPRYAMGRYRQAPRKERELVAAITRRGGRTYYADSVKGRFTISRDNANNTVYLQMNSLKPEDTAVYYCNADFISTRPPKATDEDYWGQGTQVTVSS | high polyreactivity |
| QVQLVESRGGLVQAGGSLRLSCAASGITFPRYAMGWYRPAPGKERELVARITSGGRTNYADSVKGRFTISRDNAKNTVYLQMNSLKPEDTAFYYCNAVAQSGRYDYWGQGTQVTVSS | high polyreactivity |
| QVQLVESRGGLVQAGGSLRLSCAASGLIFTVNAMGWYRQAPGKERELVAAISQSGGSTYYADSVKGRFTISRDNAKNTVYLQMNSLKPEDTAVYYCAAKSDPYRHDYWGQGTQVTVSS | low polyreactivity |
| QVQLVESRGGLVQAGGSLRLSCAASGRIFGDNAMGWSRQAPGKEREFVATINGSGGSTYYADSVKGRFTISRDNAKNTVYLQMNSLKPEDTAVYYCFVYGYVPYNYWGQGTQVTVSS | low polyreactivity |
| QVQLVESRGGLVQAGGSLRLSCAASGRIFRYNAMGWYRQAPGKERELVAAITWSGVSTYYADSVKGRFTISRDNAKNTGYLQMNSLKPEHTAVYYCNARRWPAWSSDDYWGQGTQVTVSS | high polyreactivity |
| QVQLVESRGGLVQAGGSLRLSCAASGRIFRYYAMGWYRQAPGTEREMVAAIRYRGASTYYADSVKGRFTISRDNAKNTVYLQMNSLKPEDTAVYYCAAYDYHPYRIVGASRSDYWGQGTQVTVSS | high polyreactivity |
| QVQLVESRGGLVQAGGSLRLSCAASGRIFSIYAMGWYRQAPGKERELVAAITNGGGSTYYADSVKGRFTISRDNAKNTVYLPMISLKPEDTAVYYCAARSPGGKNTKYYWGQGTQVTVSS | high polyreactivity |
| QVQLVESRGGLVQAGGSLRLSCAASGRIFSSYAMGWYRQAPGKERELVAAISSRGGSTYYADSVKGRFTISRDNAKNTVYLQMNSLKPDDTAVYYCARVKYSGVVYKYDYWGQGTQVTVSS | high polyreactivity |
| QVQLVESRGGLVQAGGSLRLSCAASGRILHFNAMGWYRQAPGKEREFVASISWSGGFTYYADSVKGRFTISRDNAKNTVYLQMNSLTPEDTAVYYCARGYGYGDHAMGYWGQGTQVTVSS | high polyreactivity |
| QVQLVESRGGLVQAGGSLRLSCAASGRTFDRNAMGWYRQAPGKERQFVAAITSRVGSTYYADSVKGLFTISRDTAKNTVYLQMNSQKPEDTAVYDCNKRYFGEQTWVGGDSWGQGTLVTVSS | high polyreactivity |
| QVQLVESRGGLVQAGGSLRLSCAASGRTFEYNAMGWYRQAPGKERELVATIRYSGTSTYADSVKGRFTISRDNAKNTVYLQMNSLKPEDTAVYYCAKQVRYYGYKYNYWGQGTQVTVSS | high polyreactivity |
| QVQLVESRGGLVQAGGSLRLSCAASGSIFLSYAMGWYRQAPGKERELVADISRSGGSTYYADSVKGRFTISRDNAKNTVYLQMNSLKPEDTAVYYCAVYIAVYEGDYWGQGSQVTVSS | low polyreactivity |
| QVQLVESRGGLVQAGGSLRLSCAASGSIFRPYAMGWYRQAPGKERELVAAISSSGGSTYYADSVKGRFTISRDNAKNTVYLQMNSLKPEDTAVYYCAAESRSTWIHSRDYWGQGTQVTVSS | low polyreactivity |

| Sequence | polyreactivity (PSR sort gate) |
| --- | --- |
| QVQLVESRGGLVQAGGSLRLSCAASGSIFYVYAMGWYRQAPAKERELVAAITSSGTTNYADSVKGRFTIPRDNAKNTVYLQMNSLKPEDTAVYYCAADPDSGQVPFDYWGQGTQVTVSS | low polyreactivity |
| QVQLVESRGGLVQAGGSLRLSCAASGSTFDGNAMGWYRQAPGKERELVAAISIGGSTSYADSVKGRFTISRDNAKNTVYLQMNSLNPEDTAVYYCAADRYRTFYQWKRYRYDYWGQGTQVTVSS | high polyreactivity |
| QVQLVESRGGLVQAGGSLRLSCAASGSTFTHYAMGRYRHAPGKERELVAAISWGGGTTRYADSVKGRFTISRDNAKNSVYLQMNSLKPVDTAVYYCAKRVRTGSVGNFNYWGQGTQVSVSS | high polyreactivity |
| QVQLVESRGGLVQAGGSLRLSCAASGSTSYIYVMGWYRQAPGKERELVATISKNGGDTYADSVKGRFTISRDNAKNTVYLQMNSLKPEDTAVYYCYARAYLYNRRISSRYNYWGQGTQVTVSS | high polyreactivity |
| QVQLVESRGGLVQAGGSLRLSCAASRSTFGVNAMGWYRQAPGKERELVARISSGVRTYYADSVKGRFTISRDNAKNTVYLQMNSMIPEDTAVYYCAAVYFRGVDRAFLSYSYYYWGQGTQVTVSS | high polyreactivity |
| QVQLVESRGGLVQAGGSLRLSCAPSGLIFWAYARGWYRQAPGNERELVAAINWRGGSTYYADSVKGRFTISRDNAKNTVYLQMNSLKPEDTAVYYCAADSYYDEYDYWGQGTQVTVSS | low polyreactivity |
| QVQLVESRGGLVQAGGSLRLSCDASGFIFTLYAMGWYRQAPGKERELVASIRGSGGNTYYADSVKGRFTISRDNAKNTVYLQMNSLKPEDTAVYYCAARTYRRPYSSWGQGTQVTVSS | high polyreactivity |
| QVQLVESRGGLVQAGGSLRLSCGASGFIFKPYAMGWYRQAPGKERELVASISTGARTYYADSVKGRFTISRDNAKNTVYLQMNSLKPEDTGVYYCAAAYSRWITRYDYWGQGTQVTVSS | high polyreactivity |
| QVQLVESRGGLVQAGGSLRLSCPASGFTNWRNDMGWYRQAPGKERELVADISTAGRTYYADSVKGRFTISRDNAKNTVYLQMNSLNPEDTAVYYCAKRSYYKDQPRYGYWGQGTQVTVSS | low polyreactivity |
| QVQLVESRGGLVQAGGSLRLSCPDSGITLSEYAMGWYRQAPGKERELVATISWRGGTTYYADSVKGLFTISRDNAKNTVSLQMIILNPEDTAVYYCAASWWSFGCYTWKAYDYWGQGTQVTVSS | high polyreactivity |
| QVQLVESRGGLVQAGGSLRLSSAASAFIFGSNAMGWYRQAPGKERELVAAISRSGGSTYYADSVKGRFTISRDNAKKTVYLQMNSLKPEDTAVYYCNVDLWPFVYSWWSYDYWGPGTQVTVSS | high polyreactivity |
| QVQLVESRGGLVQAGGSLRLSSAASGSIIWYYAMGWYRQAPGKERELVAAITVSGGSTYYADSVKGRFTISRDNAKNTVYLQMNSLKPEDSAVYYCAARYISLSGDEYDYWGQGTQVTVSA | low polyreactivity |
| QVQLVESRGGLVQAGRSLRLSCAASGSTFVQYVMGWYRQAPGKERELVAAITRSGGSTYYADSVKGRFTISRDNAKNTVYLHMNSLKPEDTAVYYCAAVPWRRSTRYDYWGQGTQVTVSS | high polyreactivity |
| QVQLVESRGGLVQAGVSLRLSCASSGRIVGWYAMGWYIQAPGKERELVAVITWSDGRTYYADSVKGRFTISRDNAKNTVYLQMNSLKPEDTAVFYCAAADWITEYDYWGQGTQVTVSS | low polyreactivity |
| QVQLVESRGGLVQAGVSLRLSCSASGSIFPYYAMGWYRQAPGKEREFVASISSVTSTYADSVKGRFTISRDNAKNTVYFQMYILIPEDTAVYYFAADRAYSWYSVSRNNYWGPGTQVTVSS | low polyreactivity |
| QVQLVESRGRLVQAGGSLRLSCAASGFSFVINDMGRYRQAPGKERELVADITSGGDTYYADSVKGRFTISRDNAKNTVYLQKNSLKPEDTAVYYCAADIYRDLIYLLYGYWGQGTQVTVSS | low polyreactivity |
| QVQLVESRGVLVQAGGSLRLSCAASGRTFYFYVKGWYIQEPGKERELVARISYSDGSTYYADSVKGRFTISRDNAKNTVYLQMNSLKPEDTAVYYCNAYDPYFGRRYDYWGQGTQVTVSS | low polyreactivity |
| QVQLVESRGVLVQAGGSLRLSCAASGSNFYVYAMGWYRPAPGKERELVAGISWSADSTYYADSVKGRFTISRDNAKYTVYLQMNSLKPEDSAVYYCATDRYPTRRYDYWGQGTQVTVSS | low polyreactivity |
| QVQLVESRVGLVQAGGSLRLSCAASGITLYYYALGWYRHAPGKEREFVAAITWRGTTTYYADSVKGPFTISRDNAKNTVYLQMNSLKPEDTALYYCAAEHEQRVADYYYWGQGTQVTVSS | low polyreactivity |
| QVQLVESSGGLVQAGGSLRLRCAASGMISEYNAMGWSRQAPGKERELVAAITWNGGSTFYADSVKGRFTISRDNAKNTVYLQMNSLKPEDTAVYYCNKTRLEPEYGYWGQGTQVTVSS | low polyreactivity |
| QVQLVESVGALVQAGGSLRLSCAASGSTFRRNAMGWYRQAPGKERELVATITTRGGSTYYADSVKGRFTLSRDNAKNTVNLQMNSLKPEDTAVYYCAADRRSGYSRSKYGRGDYWGQGTQVTVSS | high polyreactivity |
